This is an account of results in paper doi:10.1101/2025.08.13.669967.

Broadly, the stoichiometry N is the number of molecules, sites or subunits per partner or assembly.

Experiment [1] concerns the target Artemia franciscana ferritin (Artemia franciscana). Nature of the experiment: native gel or EMSA.
Experiment [2] has the same target. Kind of experiment: cryo-EM structure.

For “Artemia franciscana ferritin (natural protein)”, the stoichiometry N in experiment [1] and in experiment [2] was 24 throughout.
